Data taken from the supplement of paper PMC10567573.

B1: SLC6A17 (parent)
chain: HMFTPKLDKMLDPQVWREAATQVF

Variants of: B1
Assay: protein stability index of a GFP-peptide fusion (GPS, HEK-293T) (PSI 1-6); higher = more stable
Conditions: c terminus: a fixed tail appended
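Further: lentivirally expressed fusions sorted by FACS into six bins by GFP to DsRed ratio, PSI derived from sequencing read proportions per bin multiplied by bin number.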

Protein stability index: each site, then its substitutions
V23: T 2.02; R 3.06; Q 1.74; W 1.75; Y 2.17; A 2.02; C 2.99; H 2.02; I 1.89; M 1.55; G 2.2; L 1.58; F 2.16; E 2.9; K 2.48; S 2.05; N 2.07; P 2.2; D 3.65
Q22: K 2.52; H 1.64; D 2.43; I 1.45; L 1.68; N 2.5; G 1.93; P 1.67; S 1.9; C 1.81; R 1.77; M 3.21; T 1.82; Y 1.85; E 1.9; W 2.1; A 1.36
A19: T 2.56; K 1.79; C 3.43; Q 2.35; N 2.35; Y 2.12; H 2.14; E 1.96; L 1.48; F 2.03; P 2.24; I 1.91; S 1.52; R 2.03; W 1.35; M 1.5; G 1.63; V 2.15; D 2.21
W16: S 2.87; N 3.2; K 2.94; R 3.72; P 3.78; T 3.05; C 2.75; E 3.76; M 2.14; Y 2.62; A 2.47; Q 3.06; F 2.47; V 2.59; I 2.33; L 2.34; H 3.88; D 3.83; G 3.27
L7: N 1.99; Y 1.46; I 1.4; D 2.55; S 2.02; A 1.94; E 2.86; T 2.27; V 1.79; F 1.8; C 1.86; H 1.79; P 2.1; R 1.89; M 2.38; G 2.24; Q 2.55; K 2.73; W 1.62
T21: W 2.48; G 2.13; K 3.06; A 1.91; N 2.21; Y 1.54; C 1.06; D 2.36; Q 1.28; F 3.23; V 1.71; L 1.88; H 1.76; S 1.94; M 1.54; R 1.84; P 2.46; E 2.42; I 1.48
F24: C 1.97; K 3.81; P 3.17; M 2.96; H 2.18; L 2.7; I 1.54; N 2.67; D 3.56; A 2.29
E18: F 1.85; N 2.3; T 1.79; S 1.99; K 1.08; D 1.87; Q 2.22; I 1.97; M 1.52; L 1.38; V 2.37; R 3.18; Y 1.75; A 2.04; C 1.29; H 1.91; P 1.86; G 1.02
V15: S 2.15; W 2.24; F 2.22; A 2.38; G 1.96; D 2.96; C 2.12; I 1.35; L 2.37; Q 1.89; R 3.24; N 1.9; K 2.39; T 2.66; P 2.81; M 1.63; E 2.84; Y 2.12; H 2.34
K6: N 2.11; S 1.89; Y 2.85; L 2.1; F 1.65; Q 1.51; H 1.83; G 1.8; W 2.1; I 1.7; M 1.62; P 2.01; R 1.76; V 1.24; T 1.74
P13: L 1.86; C 1.82; A 2; H 1.54; E 2.4; M 2.33; S 1.93; Y 1.69; I 1.29; N 2.4; V 2.11; K 2.34; Q 2.19; D 1.79; F 1.67; W 1; T 1.76
M10: Q 2.78; Y 2.23; L 3.08; D 2.63; T 1.66; C 2.31; G 2.15; R 1.78; N 1.99; F 2.59; P 2.4; H 1.42; S 2.17; K 1.78; V 1.85; I 1.74; E 2.57; W 2.05
A20: T 2.19; Q 1.7; P 1.48; K 2.38; R 1.87; I 2.21; G 1.82; H 1.26; V 1.22; L 2.6; E 2.41; F 1.43; N 1.94; D 2.24; S 2.03; C 1.82
D8: G 2.06; W 1.86; P 3.01; S 2.3; K 2.79; M 1.81; C 1.67; F 2.81; I 1.65; V 1.34; R 3.33; L 1.76; E 1.5; T 2.27; N 2.33; A 1.82; H 1.84; Q 1.87; Y 2
K9: N 2.04; A 1.21; L 1.83; I 1.66; V 1.5; P 3.02; W 2.95; H 2.94; F 1.52; D 2.63; Y 1.33; T 2.1; S 1.53; M 2.03; Q 1.92; E 1.58; G 1.25; R 2.42
Q14: P 1.63; A 1.73; W 1.69; S 1.59; G 1.56; V 2.51; F 2.13; M 2.06; H 1.74; Y 2.03; E 2.41; R 1.94; N 2.23; T 2.23; I 1.12; L 2.14; K 2.26
D12: P 1.91; T 2.45; S 1.98; C 2.67; G 1.3; Q 2.2; E 1.39; R 1.81; K 1.63; W 2.8; N 1.34; V 1.32; A 1.98; Y 1.34; F 1.63; I 1.79; M 1.42; H 1.66
R17: G 2; W 1.6; S 2.8; E 2.3; Q 1.84; T 1.82; C 1.39; D 2.46; P 1.89; F 1.27; H 1.74; L 3.05; M 2.42; K 1.11; V 2.18; N 2.26; A 1.36; Y 1.18; I 2.08
L11: N 2.29; C 2.17; K 2.24; M 2.05; H 2.23; G 2.9; S 2.18; W 1.63; P 2.16; I 2.39; T 2.18; D 1.87; V 1.87; Q 2.35; F 2.33; A 1.55; Y 2.43; R 3.13
